Patent US6352972

Molecular target: collagen (collagen-coated wells, source not stated)
Assay: cell-based or functional assay

human platelet-derived TGFβ1 (commercial) (from UniProt P01137 279-390) (ligand)
proliferation of 3T3 cells: 15 fold
